{"source": "paper PMC6104738", "biological_target": "EBOV GP [change] (residues 1-636; strain Makona) (Zaire ebolavirus (EBOV), strain Makona)", "assay": "negative-stain electron microscopy; purified EBOV GP ΔTM alone", "data": [{"substance": "EBOV GP [change] (residues 1-636; strain Makona) (domain or fragment)", "values": [{"measurement": "stoichiometry N", "result": 3}]}]}
